Publication PMC8752837, “Structural basis of BAK activation in mitochondrial apoptosis initiation” (Nature Communications, 2022)
Each block holds one binder with its values, some of them ahead of it.

What was measured:
[1] = target: T1, MEAS-BAK-His6 (C-terminus truncated recombinant human BAK containing C-terminal 6x histidine tag) (human) (UniProt Q16611)
T1 sequence: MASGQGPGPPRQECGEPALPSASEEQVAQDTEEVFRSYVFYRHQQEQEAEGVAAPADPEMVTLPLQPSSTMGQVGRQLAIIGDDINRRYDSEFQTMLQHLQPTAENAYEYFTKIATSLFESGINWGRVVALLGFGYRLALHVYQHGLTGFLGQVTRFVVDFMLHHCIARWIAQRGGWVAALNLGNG

[2] = target: T2, Human BAK-∆TM-His6 (human); assay: SPR; MEAS-BAK-His6 captured (~500 RU) on Ni2+-charged NTA HisCap chip, peptides injected; 20 °C; 20 mM HEPES pH 8.0, 200 mM NaCl, 1 mM TCEP, 0.01% Tween20; 1:1 interaction model
T2 sequence (Q16611 whole entry, looked up): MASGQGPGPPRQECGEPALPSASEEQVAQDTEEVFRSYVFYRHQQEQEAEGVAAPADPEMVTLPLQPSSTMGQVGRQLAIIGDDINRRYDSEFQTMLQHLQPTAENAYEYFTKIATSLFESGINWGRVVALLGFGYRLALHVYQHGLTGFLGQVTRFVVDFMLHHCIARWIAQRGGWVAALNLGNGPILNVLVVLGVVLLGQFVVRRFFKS

Supplementary Table 1: liposome permeabilization EC50 (peptide dose against AUC, 50 nM BAK; data of Supplementary Figure 4b; also printed in Supplementary Figure 3d) [1]: 0.0358 µM
B1: WT BAK BH3 peptide (peptide)
peptide: SASEEQVAQDTEEVFRSYVFYRHQQEQEAEGVAAPADPEMVTLPLQPSSTMGQVGRQLAIIGDDINRRYDSEFQTMLQHLQPTAENAYEYFTKIATSLFESGINWGRVVALLGFGYRLALHVYQHGLTGFLGQVTRFVVDFMLHHCIARWIAQRGGWVAALNL
modifications: N-terminal acetylation; C-terminal amidation

Kd [2]: 67 µM
B2: BAK BH3 peptide (peptide)
peptide: B1 peptide
modifications: N-terminal acetylation; C-terminal amidation
